These results are taken from patent US7132278B2, “PAS kinase” (Board of Regents, The University of Texas System, priority 2001, dated 2006).

Common to all, as to assay: PASK kinase assay, 32P incorporation into AMARA peptide substrate
Data set [1] deals with T1, AMARA peptide (Homo sapiens, UniProt Q96RG2, F1266C).
T1 construct: Compounds are checked for effects on both full length and truncated versions of PASK; His6 (N); made in house; host or cells: baculovirus-infected Sf-9 insect cells
The format is biochemical. Conditions: truncated variant vs native enzyme. The procedure: (§1) Biochemical properties of the Pask enzyme. A recombinant baculovirus was engineered to overexpress human PASK enzyme in cultured insect cells. The enzyme was expressed as a fusion with a His6 tag at its amino terminus such that the recombinant polypeptide could be purified by Ni-affinity chromatography. Routine enzyme preparations were harvested from 0.8 liter of cultured Sf-9 cells. Cells were lysed by dounce homogenization in 50 mM Tris-HCl, pH 8.0, 100 mM NaCl, 0.04% β-mercaptoethanol (“lysis buffer”) and spun at 100,000×G for one hour to remove insoluble debris. Soluble material (˜50 ml) was then applied to a 3 ml bed volume of Ni-affinity resin. Following application and 50× column volume wash, bound material was eluted with storage buffer (50 mM HEPES, pH 7.4, 100 mM NaCl, 1 mM DTT, 1 mM EDTA) supplemented with 250 mM imidazole. Eluted material was sequentially subjected to Mono-Q, anion-exchange chromatography, and eluted with increasing NaCl concentration. Fractions were evaluated by SDS-PAGE to identify PASK enriched fractions, pooled and dialyzed against storage buffer supplemented with 10% glycerol. Typical enzyme preparations yield 0.5 mg of intact PASK enzyme judged to be greater than 95% pure by visual inspection of Coomassie-stained SDS-PAGE gels.
(§2) Kinetic data were used to characterize the activities of PASK enzyme samples derived without modification from baculovirus and following pre-phosphorylation in the presence of ATP. Enzyme activity was monitored using a synthetic substrate bearing the sequence NH2-[…]-CO2H (AMARA peptide, SEQ ID NO:9). The serine residue in this peptide is known to be phosphorylated by both AMPK and Snf1 [2], both of which are exceedingly similar in primary amino acid sequence to the catalytic domain of PASK. The three arginine residues located at the carboxyl terminus of the AMARA peptide allow avid binding to phosphocellulose paper, thereby facilitating quantitation of ^32P incorporation catalyzed by PASK from [γ-^32P]ATP. […] Moreover, lambda phosphatase treatment generated an enzyme which had 7-fold lower activity than the unmodified enzyme, and this treatment was fully reversible by allowing the enzyme to autophosphorylate in the presence of ATP.
(§3) PASK concentrations (0.5–2 μg/ml) were determined to have linear rates with respect to protein concentration and time. Kinetic constants were determined using peptide substrate concentrations between 0.06–1 mM. The data were fit to a non-linear Michaelis-Menten equation using the GraphPad Prism 2.0 program. Vmax values given are μmol/min/mg. NS indicates an SE less than 0.05.

Data set [2] relates to AMARA peptide. The format is biochemical, human. Conditions: Pre-phosphorylated enzyme; for Vmax: peptide substrate; for Km: peptide substrate 0.06–1 mM. Here is the method: as §1, §2, §3
Data set [3] has as its target T2, AMARA peptide (Homo sapiens, UniProt Q96RG2, F1266C/Y899H).
T2 construct: Compounds are checked for effects on both full length and truncated versions of PASK; His6 (N); made in house; host or cells: baculovirus-infected Sf-9 insect cells
The format is biochemical. Conditions: Untreated enzyme. Here is the method: as §1, §2, §3

A word on the Vmax: it is the top rate of the reaction or transport when substrate is in excess. The Km is the concentration of substrate that gives half-maximal velocity.

B1: PASK ΔN: truncated human PASK variant lacking both PAS domains, 948 amino-terminal residues removed, His6 tag (protein)
chain: SLPGSTHSTAAELTGPSLVEVLRARPWFEEPPKAVELEGLAACEGEYSQKYSTMSPLGSGAFGFVWTAVDKEKNKEVVVKFIKKEKVLEDCWIEDPKLGKVTLEIAILSRVEHANIIKVLDIFENQGFFQLVMEKHGSGLDLFAFIDRHPRLDEPLASYIFRQLVSAVGYLRLKDIIHRDIKDENIVIAEDFTIKLIDFGSAAYLERGKLFYTFCGTIEYCAPEVLMGNPYRGPELEMWSLGVTLYTLVFEENPFCELEETVEAAIHPPYLVSKELMSLVSGLLQPVPERRTTLEKLVTDPWVTQPVNLADYTWEEVCRVNKPESGVLSAASLEMGNRSLSDVAQAQELCGGPVPGEAPNGQGCLHPGDPRLLTS
modifications: left off: small tags and cut ends
notes: truncated human PASK variant lacking both PAS domains, 948 amino-terminal residues removed, His6 tag
In the case of B1, the “catalytic rate constant (Vmax) higher than the native enzyme” value with AMARA peptide [1] turned out to be 18 fold. Further, in the data set with AMARA peptide [2], the Vmax is 2.8 µmol/min/mg and the Km stood at 300 µM.

B2: wildtype: His6-tagged human PASK enzyme expressed in baculovirus-infected Sf-9 cells (protein)
chain: MEDGGLTAFEEDQRCLSQSLPLPVSAEGPAAQTTAEPSRSFSSAHRHLSRRNGLSRLCQSRTALSEDRWSSYCLSSLAAQNICTSKLHCPAAPEHTDPSEPRGSVSCCSLLRGLSSGWSSPLLPAPVCNPNKAIFTVDAKTTEILVANDKACGLLGYSSQDLIGQKLTQFFLRSDSDVVEALSEEHMEADGHAAVVFGTVVDIISRSGEKIPVSVWMKRMRQERRLCCVVVLEPVERVSTWVAFQSDGTVTSCDSLFAHLHGYVSGEDVAGQHITDLIPSVQLPPSGQHIPKNLKIQRSVGRARDGTTFPLSLKLKSQPSSEEATTGEAAPVSGYRASVWVFCTISGLITLLPDGTIHGINHSFALTLFGYGKTELLGKNITFLIPGFYSYMDLAYNSSLQLPDLASCLDVGNESGCGERTLDPWQGQDPAEGGQDPRINVVLAGGHVVPRDEIRKLMESQDIFTGTQTELIAGGQLLSCLSPQPAPGVDNVPEGSLPVHGEQALPKDQQITALGREEPVAIESPGQDLLGESRSEPVDVKPFASCEDSEAPVPAEDGGSDAGMCGLCQKAQLERMGVSGPSGSDLWAGAAVAKPQAKGQLAGGSLLMHCPCYGSEWGLWWRSQDLAPSPSGMAGLSFGTPTLDEPWLGVENDREELQTCLIKEQLSQLSLAGALDVPHAELVPTECQAVTAPVSSCDLGGRDLCGGCTGSSSACYALATDLPGGLEAVEAQEVDVNSFSWNLKELFFSDQTDQTSSNCSCATSELRETPSSLAVGSDPDVGSLQEQGSCVLDDRELLLLTGTCVDLGQGRRFRESCVGHDPTEPLEVCLVSSEHYAASDRESPGHVPSTLDAGPEDTCPSAEEPRLNVQVTSTPVIVMRGAAGLQREIQEGAYSGSCHHRDGLRLSIQFEVRRVELQGPTPLFCCWLVKDLLHSQRDSAARTRLFLASLPGSTHSTAAELTGPSLVEVLRARPWFEEPPKAVELEGLAACEGEYSQKYSTMSPLGSGAFGFVWTAVDKEKNKEVVVKFIKKEKVLEDCWIEDPKLGKVTLEIAILSRVEHANIIKVLDIFENQGFFQLVMEKHGSGLDLFAFIDRHPRLDEPLASYIFRQLVSAVGYLRLKDIIHRDIKDENIVIAEDFTIKLIDFGSAAYLERGKLFYTFCGTIEYCAPEVLMGNPYRGPELEMWSLGVTLYTLVFEENPFCELEETVEAAIHPPYLVSKELMSLVSGLLQPVPERRTTLEKLVTDPWVTQPVNLADYTWEEVCRVNKPESGVLSAASLEMGNRSLSDVAQAQELCGGPVPGEAPNGQGCLHPGDPRLLTS
modifications: left off: small tags and cut ends
notes: His6-tagged human PASK enzyme expressed in baculovirus-infected Sf-9 cells
Take B2: the Vmax was 0.1 µmol/min/mg with AMARA peptide [3] (peptide substrate) and 0.2 µmol/min/mg in the data set on AMARA peptide [2]. The results for the Km with AMARA peptide [3] (peptide substrate 0.06–1 mM) and with AMARA peptide [2] were 1300 µM and 200 µM, respectively.
